Measurements: patent US20130064834A1 (published 2013)

T1: his-tagged Syrian golden hamster (Mesocricetus auratus) PCSK9 (Syrian golden hamster (Mesocricetus …))
T1 chain: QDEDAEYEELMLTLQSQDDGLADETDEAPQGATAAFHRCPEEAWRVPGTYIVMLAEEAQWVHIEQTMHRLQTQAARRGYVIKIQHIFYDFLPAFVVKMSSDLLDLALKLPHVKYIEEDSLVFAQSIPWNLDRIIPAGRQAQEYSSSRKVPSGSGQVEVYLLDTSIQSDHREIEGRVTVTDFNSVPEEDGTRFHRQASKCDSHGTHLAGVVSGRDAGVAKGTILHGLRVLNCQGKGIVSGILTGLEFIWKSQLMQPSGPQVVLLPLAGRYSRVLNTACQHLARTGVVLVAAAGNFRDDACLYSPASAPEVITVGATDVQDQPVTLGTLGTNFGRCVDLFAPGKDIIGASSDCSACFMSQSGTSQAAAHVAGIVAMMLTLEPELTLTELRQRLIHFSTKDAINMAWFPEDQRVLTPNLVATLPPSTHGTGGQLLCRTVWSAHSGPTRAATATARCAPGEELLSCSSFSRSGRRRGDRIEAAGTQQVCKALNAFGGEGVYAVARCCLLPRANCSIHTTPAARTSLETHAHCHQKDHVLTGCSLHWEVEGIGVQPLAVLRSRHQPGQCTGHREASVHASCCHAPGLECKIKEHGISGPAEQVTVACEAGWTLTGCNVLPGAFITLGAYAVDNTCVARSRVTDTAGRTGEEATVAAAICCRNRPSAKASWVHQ

T2: Chimeric protein #1 (mPro-hCat-mC-term-mmh) (mouse; human, UniProt Q80W65 35-694)
T2 chain: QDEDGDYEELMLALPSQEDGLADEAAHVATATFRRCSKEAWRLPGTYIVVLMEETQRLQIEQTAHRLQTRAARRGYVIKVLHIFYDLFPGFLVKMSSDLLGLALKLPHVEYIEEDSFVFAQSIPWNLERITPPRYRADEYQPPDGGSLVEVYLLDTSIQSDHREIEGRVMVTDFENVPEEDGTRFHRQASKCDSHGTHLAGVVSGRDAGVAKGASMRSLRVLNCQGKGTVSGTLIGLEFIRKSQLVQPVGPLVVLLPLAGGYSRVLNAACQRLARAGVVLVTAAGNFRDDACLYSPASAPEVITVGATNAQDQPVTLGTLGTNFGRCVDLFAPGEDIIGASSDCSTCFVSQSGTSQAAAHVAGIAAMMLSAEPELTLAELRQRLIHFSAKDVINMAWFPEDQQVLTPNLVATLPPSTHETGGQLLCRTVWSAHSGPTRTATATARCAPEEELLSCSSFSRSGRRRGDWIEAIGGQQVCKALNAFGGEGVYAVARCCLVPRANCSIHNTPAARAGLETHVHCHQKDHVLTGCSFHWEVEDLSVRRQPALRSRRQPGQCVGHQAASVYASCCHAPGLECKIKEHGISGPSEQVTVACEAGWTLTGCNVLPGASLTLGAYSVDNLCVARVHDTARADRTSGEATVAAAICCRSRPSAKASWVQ


Legend:
[1] = target: T3, tagged rhesus monkey (Macaca mulata) PCSK9 (rhesus monkey (Macaca mulata), UniProt A8T666 31-692); experiment: SPR, 25C
T3 construct: also called mmPCSK9-mmh; mmPCSK9
T3 sequence (A8T666 31-692 limits assumed): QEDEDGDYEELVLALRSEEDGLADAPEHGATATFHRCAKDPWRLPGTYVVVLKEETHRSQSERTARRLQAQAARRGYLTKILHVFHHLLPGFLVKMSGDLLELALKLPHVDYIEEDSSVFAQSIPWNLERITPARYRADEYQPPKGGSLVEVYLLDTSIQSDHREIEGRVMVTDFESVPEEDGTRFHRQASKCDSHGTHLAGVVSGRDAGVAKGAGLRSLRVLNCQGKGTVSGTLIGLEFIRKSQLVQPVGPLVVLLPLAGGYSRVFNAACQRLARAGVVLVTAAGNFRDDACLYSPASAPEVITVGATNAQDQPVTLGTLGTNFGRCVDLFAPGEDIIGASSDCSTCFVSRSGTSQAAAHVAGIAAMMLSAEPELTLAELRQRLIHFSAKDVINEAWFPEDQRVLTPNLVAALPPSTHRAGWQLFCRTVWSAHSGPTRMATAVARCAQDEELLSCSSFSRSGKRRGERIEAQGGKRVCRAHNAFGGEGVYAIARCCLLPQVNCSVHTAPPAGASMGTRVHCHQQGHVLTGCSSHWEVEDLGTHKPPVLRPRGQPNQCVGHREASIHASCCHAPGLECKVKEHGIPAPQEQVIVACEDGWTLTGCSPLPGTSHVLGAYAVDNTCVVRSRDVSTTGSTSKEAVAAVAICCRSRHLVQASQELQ

Human PCSK9-myc-myc-his [2] = target: T4, Human PCSK9-myc-myc-his (human, UniProt Q8NBP7 31-692); experiment: SPR, mAb captured, 25C
T4 construct: also called hPCSK9-mmh; hPCSK9
Procedure: Each selected antibody was captured at a flowrate of 2 μl/min for 6 min on a goat anti-human IgG polyclonal antibody surface created through direct chemical coupling to a BIACORE™ chip to form a captured antibody surface.

Human PCSK9-myc-myc-his [3] = target: T4, Human PCSK9-myc-myc-his; experiment: cell-based or functional assay
hPCSK9(D374Y)-mmh [4] = target: T5, hPCSK9(D374Y)-mmh (human, UniProt Q8NBP7 31-692); experiment: cell-based or functional assay
[5] = target: cynomolgus monkey (Macaca fascicularis) PCSK9, myc-myc-his tagged (cynomolgus monkey (Macaca fascicularis), UniProt A8T662 31-692 (Macaca nemestrina entry), limits assumed); experiment: cell-based or functional assay
cynomolgus monkey (Macaca fascicularis) PCSK9, myc-myc-his tagged, sequence (A8T662 31-692 limits assumed): as the sequence (A8T666 31-692 limits assumed) above, with P607A, K639E counted along it

[6] = target: T6, mouse PCSK9, myc-myc-his tagged (mouse, UniProt Q80W65 35-694); experiment: cell-based or functional assay
Target sequence in this assay (Q80W65 35-694 limits assumed): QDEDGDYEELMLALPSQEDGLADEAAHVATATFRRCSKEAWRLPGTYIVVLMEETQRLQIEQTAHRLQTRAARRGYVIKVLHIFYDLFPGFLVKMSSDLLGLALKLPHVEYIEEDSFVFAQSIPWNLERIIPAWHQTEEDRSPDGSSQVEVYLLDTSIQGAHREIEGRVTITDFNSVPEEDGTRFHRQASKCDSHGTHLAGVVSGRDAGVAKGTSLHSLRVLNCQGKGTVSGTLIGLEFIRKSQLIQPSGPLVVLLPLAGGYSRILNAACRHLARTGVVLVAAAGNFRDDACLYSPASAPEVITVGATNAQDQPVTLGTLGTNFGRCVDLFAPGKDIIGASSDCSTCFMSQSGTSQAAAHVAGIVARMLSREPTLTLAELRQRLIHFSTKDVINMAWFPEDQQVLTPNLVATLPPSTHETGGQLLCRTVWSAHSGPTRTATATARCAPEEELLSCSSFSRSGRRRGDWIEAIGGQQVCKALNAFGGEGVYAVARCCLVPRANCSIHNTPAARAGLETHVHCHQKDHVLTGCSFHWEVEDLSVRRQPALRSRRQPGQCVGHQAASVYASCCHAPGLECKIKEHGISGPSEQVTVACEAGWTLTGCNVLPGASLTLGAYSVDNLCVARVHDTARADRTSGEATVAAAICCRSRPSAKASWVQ

[7] = target: T1, his-tagged Syrian golden hamster …; experiment: cell-based or functional assay
[8] = target: T7, rat (Rattus norvegicus) PCSK9, myc-myc-his tagged (rat (Rattus norvegicus), UniProt P59996 31-691); experiment: cell-based or functional assay
T7 sequence (P59996 31-691 limits assumed): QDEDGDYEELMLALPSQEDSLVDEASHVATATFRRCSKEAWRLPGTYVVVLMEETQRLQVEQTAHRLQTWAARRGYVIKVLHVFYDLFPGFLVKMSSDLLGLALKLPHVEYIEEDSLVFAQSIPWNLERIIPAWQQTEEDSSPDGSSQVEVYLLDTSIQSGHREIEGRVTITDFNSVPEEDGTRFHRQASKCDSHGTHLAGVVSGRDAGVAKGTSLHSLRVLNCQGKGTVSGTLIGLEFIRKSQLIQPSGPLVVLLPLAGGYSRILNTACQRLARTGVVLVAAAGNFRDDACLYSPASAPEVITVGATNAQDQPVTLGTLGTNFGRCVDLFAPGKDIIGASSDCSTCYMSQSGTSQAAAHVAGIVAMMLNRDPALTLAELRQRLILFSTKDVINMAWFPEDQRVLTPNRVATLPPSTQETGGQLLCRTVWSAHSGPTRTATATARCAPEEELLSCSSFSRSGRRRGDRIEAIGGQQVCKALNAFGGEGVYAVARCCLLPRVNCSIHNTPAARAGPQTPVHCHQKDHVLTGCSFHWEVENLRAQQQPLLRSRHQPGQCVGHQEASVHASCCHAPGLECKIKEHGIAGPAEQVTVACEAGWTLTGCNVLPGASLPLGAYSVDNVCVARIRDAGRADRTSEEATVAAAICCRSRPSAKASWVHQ

Human PCSK9-myc-myc-his [9] = target: T4, Human PCSK9-myc-myc-his; experiment: ELISA, mAb coated, 1.2 nM antigen;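 also: antigen allowed to bind for 1 h at room temperature, then captured protein revealed with an HRP-linked polyclonal anti-myc antibody and read as optical density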
Source text: (§1) After 1 hr binding at RT, the plate was washed and bound test protein detected using HRP-conjugated anti-myc polyclonal antibody (++=OD>1.0; +=OD 0.4-1.0; −=OD<0.4).

[10] = target: T2, Chimeric protein #1 …; experiment: ELISA, mAb coated, 1.2 nM antigen;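 also: antigen allowed to bind for 1 h at room temperature, then captured protein revealed with an HRP-linked polyclonal anti-myc antibody and read as optical density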
Source text: as §1

Human PCSK9-myc-myc-his [11] = target: T4, Human PCSK9-myc-myc-his; experiment: competition ELISA vs EGF-A, pH 5.5
Procedure: (§2) Briefly, hLDLR-ecto, hLDLR EGF-A-hFc or hLDLR EGF-AB-hFc, each at 2 μg/ml, was coated on a 96-well plate in PBS buffer overnight at 4° C., and nonspecific binding sites blocked with BSA. […] The equilibrated sample solutions were transferred to receptor or receptor fragment coated plates.

[12] = target: T3, tagged rhesus monkey (Macaca mulata) …; experiment: competition ELISA vs EGF-A, pH 5.5
Procedure: as §2

[13] = target: T6, mouse PCSK9, myc-myc-his tagged; experiment: competition ELISA vs EGF-A, pH 5.5
Procedure: as §2

[14] = target: T1, his-tagged Syrian golden hamster …; experiment: competition ELISA vs EGF-A, pH 5.5
Procedure: as §2

[15] = target: T7, rat (Rattus norvegicus) PCSK9, …; experiment: competition ELISA vs EGF-A, pH 5.5
Procedure: as §2

Human PCSK9-myc-myc-his [16] = target: T4, Human PCSK9-myc-myc-his; experiment: competition ELISA vs EGF-AB-hFc, pH 7.2
Procedure: as §2

hPCSK9(D374Y)-mmh [17] = target: T5, hPCSK9(D374Y)-mmh; experiment: competition ELISA vs EGF-AB-hFc, pH 7.2
Procedure: as §2

Human PCSK9-myc-myc-his [18] = target: T4, Human PCSK9-myc-myc-his; experiment: SPR, antigen captured at high density, pH 7.4, 25C

Binder	IC50, LDL uptake in HepG2 cells (Human PCSK9-myc-myc-his [3]) [nM]	IC50, LDL uptake in HepG2 cells (hPCSK9(D374Y)-mmh [4]) [nM]	IC50, LDL uptake in HepG2 cells [5] [nM]	IC50, LDL uptake in HepG2 cells [6] [nM]	IC50, LDL uptake in HepG2 cells [7] [nM]	IC50, LDL uptake in HepG2 cells [8] [nM]	IC50 (Human PCSK9-myc-myc-his [11]) [nM]	IC50 [12] [nM]	IC50 [13] [nM]	IC50 [14] [nM]	IC50 [15] [nM]	IC50 (Human PCSK9-myc-myc-his [16]) [nM]	IC50 (hPCSK9(D374Y)-mmh [17]) [nM]	Kd (Human PCSK9-myc-myc-his [18]) [nM]	T1/2 (Human PCSK9-myc-myc-his [18]) [h]	other results
H1H316P (antibody, V domains shown, Fully human mAb made in CHO cells; also called mAb316P) VH: EVQLVESGGGLVQPGGSLRLSCAASGFTFNNYAMNWVRQAPGKGLDWVSTISGSGGTTNYADSVKGRFIISRDSSKHTLYLQMNSLRAEDTAVYYCAKDSNWGNFDLWGRGTLVTVSS VL: not shown	14.1	2.1	14.7	21.2	14.4	27.7	< 0.125	< 0.25	0.991	1.3	42.9	< 0.125	0.139	0.191	1.23	T1/2 [1]: 0.85 h; koff [1]: 0.000229 s⁻¹; Kd (Human PCSK9-myc-myc-his [2]): 0.377 nM; T1/2 (Human PCSK9-myc-myc-his [2]): 0.7 h; OD (Human PCSK9-myc-myc-his [9]): > 1 od; OD [10]: > 1 od
H1M300N (antibody, V domains shown, Fully human version made in CHO cells) VH: EMQLVESGGGLVQPGGSLRLSCAASGFTFSSHWMKWVRQAPGKGLEWVANINQDGSEKYYVDSVKGRFTISRDNAKNSLFLQMNSLRAEDTAVYYCARDIVLMVYDMDYYYYGMDVWGQGTTVTVSS VL: not shown	12.6	11	13.4	> 500	> 500	> 500	0.223	3.7	> 100	> 100	> 100	< 0.125	0.142	0.065	8.45	–
